Experimental data: article PMC9482650, “Quantitative fragmentomics allow affinity mapping of interactomes” (Nature Communications, 2022)

T1: PDZD2_2, O15018
T1 sequence (O15018 329-429, limits assumed, looked up): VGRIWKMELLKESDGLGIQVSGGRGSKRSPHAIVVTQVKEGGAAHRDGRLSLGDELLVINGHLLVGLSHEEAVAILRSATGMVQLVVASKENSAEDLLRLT

T2: DVL3, Q92997
T2 sequence (Q92997 244-331, limits assumed, looked up): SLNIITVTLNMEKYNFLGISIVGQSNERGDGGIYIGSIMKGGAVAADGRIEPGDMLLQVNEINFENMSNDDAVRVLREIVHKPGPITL

T3: APBA3_1, O96018
T3 sequence (O96018 389-490, limits assumed, looked up): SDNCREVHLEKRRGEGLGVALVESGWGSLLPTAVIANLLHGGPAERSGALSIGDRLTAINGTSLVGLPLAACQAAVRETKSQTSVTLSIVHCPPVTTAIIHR

T4: MPP7, Q5T2T1
T4 sequence (Q5T2T1 134-230, limits assumed, looked up): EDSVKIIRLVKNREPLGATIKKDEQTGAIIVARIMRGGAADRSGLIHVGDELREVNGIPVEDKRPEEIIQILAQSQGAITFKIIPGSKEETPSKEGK

T5: MPP6, Q9NZW5
T5 sequence (Q9NZW5 125-219, limits assumed, looked up): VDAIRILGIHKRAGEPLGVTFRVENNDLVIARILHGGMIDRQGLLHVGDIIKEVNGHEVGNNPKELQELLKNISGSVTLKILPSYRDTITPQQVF

T6: APBA2_1, Q99767
T6 sequence (Q99767 563-664, limits assumed, looked up): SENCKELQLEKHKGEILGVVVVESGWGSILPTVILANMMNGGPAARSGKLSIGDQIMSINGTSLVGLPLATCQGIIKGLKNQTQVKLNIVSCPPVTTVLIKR

T7: DLG3_1, Q92796
T7 sequence (Q92796 125-227, limits assumed, looked up): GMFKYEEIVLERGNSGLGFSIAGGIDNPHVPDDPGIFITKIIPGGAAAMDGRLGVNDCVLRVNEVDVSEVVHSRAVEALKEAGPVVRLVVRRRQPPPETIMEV

T8: LRRC7, Q96NW7
T8 sequence (Q96NW7 1440-1537, limits assumed, looked up): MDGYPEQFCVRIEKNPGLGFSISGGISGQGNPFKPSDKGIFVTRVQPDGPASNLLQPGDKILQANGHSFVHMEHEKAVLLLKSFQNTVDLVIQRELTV

T9: PTPN13_1, Q12923
T9 sequence (Q12923 1088-1188, limits assumed, looked up): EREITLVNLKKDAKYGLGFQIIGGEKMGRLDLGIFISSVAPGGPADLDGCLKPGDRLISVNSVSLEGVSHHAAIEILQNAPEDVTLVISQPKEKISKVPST

T10: ARHGEF11, O15085
T10 sequence (O15085 42-136, limits assumed, looked up): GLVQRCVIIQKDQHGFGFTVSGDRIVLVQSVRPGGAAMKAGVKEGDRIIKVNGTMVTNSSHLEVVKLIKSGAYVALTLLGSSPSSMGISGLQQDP

T11: RAPGEF6, Q8TEU7
T11 sequence (Q8TEU7 525-625, limits assumed, looked up): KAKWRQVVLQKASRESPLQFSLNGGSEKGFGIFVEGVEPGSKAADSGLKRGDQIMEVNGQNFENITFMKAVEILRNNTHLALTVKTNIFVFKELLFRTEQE

B1: GRIN1, Q05586;Q05586-2 (peptide)
chain: LSDPSVSTVV

Biological target: T1, PDZD2_2, O15018
Experiment: holdup assay
Parameters: key: below the threshold = too weak to quantify, mostly under pKd 3.1 to 4
Conditions: plain residues with an end cap or a label only (N-terminal biotin on a linker: ahx)

pKd	Binder
4.44	B1

Biological target: T2, DVL3, Q92997
Experiment: holdup assay
Parameters: key: below the threshold = too weak to quantify, mostly under pKd 3.1 to 4
Conditions: plain residues with an end cap or a label only (N-terminal biotin on a linker: ahx)

pKd	Binder
below the threshold	B1

Biological target: T3, APBA3_1, O96018
Experiment: holdup assay
Parameters: key: below the threshold = too weak to quantify, mostly under pKd 3.1 to 4
Conditions: plain residues with an end cap or a label only (N-terminal biotin on a linker: ahx)

pKd	Binder
below the threshold	B1

Biological target: T4, MPP7, Q5T2T1
Experiment: holdup assay
Parameters: key: below the threshold = too weak to quantify, mostly under pKd 3.1 to 4
Conditions: plain residues with an end cap or a label only (N-terminal biotin on a linker: ahx)

pKd	Binder
below the threshold	B1

Biological target: T5, MPP6, Q9NZW5
Experiment: holdup assay
Parameters: key: below the threshold = too weak to quantify, mostly under pKd 3.1 to 4
Conditions: plain residues with an end cap or a label only (N-terminal biotin on a linker: ahx)

pKd	Binder
below the threshold	B1

Biological target: T6, APBA2_1, Q99767
Experiment: holdup assay
Parameters: key: below the threshold = too weak to quantify, mostly under pKd 3.1 to 4
Conditions: plain residues with an end cap or a label only (N-terminal biotin on a linker: ahx)

pKd	Binder
below the threshold	B1

Biological target: FRMPD2_1, Q68DX3
Experiment: holdup assay
Parameters: key: below the threshold = too weak to quantify, mostly under pKd 3.1 to 4
Conditions: plain residues with an end cap or a label only (N-terminal biotin on a linker: ahx)

Sequence of FRMPD2_1, Q68DX3 (Q68DX3 770-861): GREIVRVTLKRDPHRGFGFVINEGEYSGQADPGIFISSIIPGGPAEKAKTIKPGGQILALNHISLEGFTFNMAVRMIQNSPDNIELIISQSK

pKd	Binder
below the threshold	B1

Biological target: T7, DLG3_1, Q92796
Experiment: holdup assay
Parameters: key: below the threshold = too weak to quantify, mostly under pKd 3.1 to 4
Conditions: plain residues with an end cap or a label only (N-terminal biotin on a linker: ahx)

pKd	Binder
below the threshold	B1

Biological target: DLG2_3, Q15700
Experiment: holdup assay
Parameters: key: below the threshold = too weak to quantify, mostly under pKd 3.1 to 4
Conditions: plain residues with an end cap or a label only (N-terminal biotin on a linker: ahx)

pKd	Binder
4.26	B1

Biological target: T8, LRRC7, Q96NW7
Experiment: holdup assay
Parameters: key: below the threshold = too weak to quantify, mostly under pKd 3.1 to 4
Conditions: plain residues with an end cap or a label only (N-terminal biotin on a linker: ahx)

pKd	Binder
below the threshold	B1

Biological target: HTRA2, O43464
Experiment: holdup assay
Parameters: key: below the threshold = too weak to quantify, mostly under pKd 3.1 to 4
Conditions: plain residues with an end cap or a label only (N-terminal biotin on a linker: ahx)

Sequence of HTRA2, O43464 (O43464 355-458): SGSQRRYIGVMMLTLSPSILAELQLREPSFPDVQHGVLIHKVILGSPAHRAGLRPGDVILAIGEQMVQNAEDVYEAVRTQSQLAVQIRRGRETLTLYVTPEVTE

pKd	Binder
below the threshold	B1

Biological target: T9, PTPN13_1, Q12923
Experiment: holdup assay
Parameters: key: below the threshold = too weak to quantify, mostly under pKd 3.1 to 4
Conditions: plain residues with an end cap or a label only (N-terminal biotin on a linker: ahx)

pKd	Binder
below the threshold	B1

Biological target: T10, ARHGEF11, O15085
Experiment: holdup assay
Parameters: key: below the threshold = too weak to quantify, mostly under pKd 3.1 to 4
Conditions: plain residues with an end cap or a label only (N-terminal biotin on a linker: ahx)

pKd	Binder
4.01	B1

Biological target: GRIP2_6, Q9C0E4
Experiment: holdup assay
Parameters: key: below the threshold = too weak to quantify, mostly under pKd 3.1 to 4
Conditions: plain residues with an end cap or a label only (N-terminal biotin on a linker: ahx)

Sequence of GRIP2_6, Q9C0E4 (Q9C0E4 648-740): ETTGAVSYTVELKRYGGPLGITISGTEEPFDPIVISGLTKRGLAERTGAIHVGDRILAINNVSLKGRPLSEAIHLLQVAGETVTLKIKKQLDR

pKd	Binder
below the threshold	B1

Biological target: FRMPD2_3, Q68DX3
Experiment: holdup assay
Parameters: key: below the threshold = too weak to quantify, mostly under pKd 3.1 to 4
Conditions: plain residues with an end cap or a label only (N-terminal biotin on a linker: ahx)

Sequence of FRMPD2_3, Q68DX3 (Q68DX3 1073-1166): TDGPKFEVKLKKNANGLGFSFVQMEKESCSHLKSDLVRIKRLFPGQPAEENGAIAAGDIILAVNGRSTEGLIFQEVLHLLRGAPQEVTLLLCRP

pKd	Binder
below the threshold	B1

Biological target: AHNAK1, Q09666
Experiment: holdup assay
Parameters: key: below the threshold = too weak to quantify, mostly under pKd 3.1 to 4
Conditions: plain residues with an end cap or a label only (N-terminal biotin on a linker: ahx)

Sequence of AHNAK1, Q09666 (Q09666 4-100): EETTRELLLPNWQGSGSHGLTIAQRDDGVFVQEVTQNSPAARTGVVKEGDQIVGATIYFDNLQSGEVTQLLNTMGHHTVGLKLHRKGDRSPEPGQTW

pKd	Binder
below the threshold	B1

Biological target: T11, RAPGEF6, Q8TEU7
Experiment: holdup assay
Parameters: key: below the threshold = too weak to quantify, mostly under pKd 3.1 to 4
Conditions: plain residues with an end cap or a label only (N-terminal biotin on a linker: ahx)

pKd	Binder
below the threshold	B1

Biological target: IL16_4, Q14005
Experiment: holdup assay
Parameters: key: below the threshold = too weak to quantify, mostly under pKd 3.1 to 4
Conditions: plain residues with an end cap or a label only (N-terminal biotin on a linker: ahx)

Sequence of IL16_4, Q14005 (Q14005 1229-1329): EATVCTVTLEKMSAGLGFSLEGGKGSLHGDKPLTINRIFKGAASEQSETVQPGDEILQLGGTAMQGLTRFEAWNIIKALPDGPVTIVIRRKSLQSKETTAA

pKd	Binder
below the threshold	B1

Biological target: DLG5_1, Q8TDM6
Experiment: holdup assay
Parameters: key: below the threshold = too weak to quantify, mostly under pKd 3.1 to 4
Conditions: plain residues with an end cap or a label only (N-terminal biotin on a linker: ahx)

Sequence of DLG5_1, Q8TDM6 (Q8TDM6 617-713): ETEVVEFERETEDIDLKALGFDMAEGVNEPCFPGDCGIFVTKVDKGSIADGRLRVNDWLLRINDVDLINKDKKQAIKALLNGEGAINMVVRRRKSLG

pKd	Binder
below the threshold	B1

Biological target: LAP2, Q96RT1
Experiment: holdup assay
Parameters: key: below the threshold = too weak to quantify, mostly under pKd 3.1 to 4
Conditions: plain residues with an end cap or a label only (N-terminal biotin on a linker: ahx)

Sequence of LAP2, Q96RT1 (Q96RT1 other isoform, or with tags, fused parts or gaps): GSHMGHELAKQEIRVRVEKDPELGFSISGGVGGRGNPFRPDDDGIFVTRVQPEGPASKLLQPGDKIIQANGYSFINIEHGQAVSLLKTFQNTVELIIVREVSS

pKd	Binder
below the threshold	B1

Biological target: MAGI2_6, Q86UL8
Experiment: holdup assay
Parameters: key: below the threshold = too weak to quantify, mostly under pKd 3.1 to 4
Conditions: plain residues with an end cap or a label only (N-terminal biotin on a linker: ahx)

Sequence of MAGI2_6, Q86UL8 (Q86UL8 1141-1229): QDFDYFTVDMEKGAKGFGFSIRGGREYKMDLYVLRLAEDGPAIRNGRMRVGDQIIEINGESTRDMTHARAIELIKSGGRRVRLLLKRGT

pKd	Binder
below the threshold	B1
